This is an account of results in patent publication US20240076386A1 (Pfizer, published 2024).

The target in experiment [1] is T1, human E-selectin extracellular domain with 10 His purification tail (human, UniProt P16581 22-556).
T1 construct: also called soluable human E-selectin extracellular domain; rhE-Selectin
T1 sequence: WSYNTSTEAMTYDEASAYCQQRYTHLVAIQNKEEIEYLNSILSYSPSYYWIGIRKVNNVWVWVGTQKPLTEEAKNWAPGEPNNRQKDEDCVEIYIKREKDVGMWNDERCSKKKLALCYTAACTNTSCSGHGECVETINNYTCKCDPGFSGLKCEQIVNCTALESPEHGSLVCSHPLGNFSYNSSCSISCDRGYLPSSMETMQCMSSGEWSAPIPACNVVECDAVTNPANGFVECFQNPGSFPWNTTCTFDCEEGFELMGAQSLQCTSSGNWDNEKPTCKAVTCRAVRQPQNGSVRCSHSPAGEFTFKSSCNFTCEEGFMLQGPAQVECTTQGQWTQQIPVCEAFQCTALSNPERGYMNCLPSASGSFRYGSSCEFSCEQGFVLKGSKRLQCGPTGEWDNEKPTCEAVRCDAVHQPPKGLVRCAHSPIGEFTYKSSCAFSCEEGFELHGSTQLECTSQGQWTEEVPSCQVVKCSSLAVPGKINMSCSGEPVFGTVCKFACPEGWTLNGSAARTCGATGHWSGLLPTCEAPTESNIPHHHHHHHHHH
Put plainly: SPR, antibody captured, E-selectin analyte. Here is the method: To characterize binding of antibodies to human, cynomolgus monkey, and mouse E-selectin, an antibody was diluted to 0.5 μg/mL in HBS-EP+ and captured by the anti-human IgG immobilized on flow cells 2, 3 and 4 for 30 seconds to 1 minute at a flow rate of 10 μL/minute to achieve a capture level of 70 to 300 RU. Flow cell 1 was used as a reference surface. […] HBS-EP+ buffer cycles collected for each captured antibody were used for double-referencing (Myszka D G. J. Mol. Recognition 1999; 12(5):279-84). At the end of each cycle, the entire anti-IgG surface was regenerated by a 30 second pulse of 3 M MgCl₂ and a 30 second pulse of ionic buffer (1.83 M MgCl₂, 0.92 M Urea, 1.83 M Guanidine HCl, pH 7.4) (Andersson K. Analy. Chem. 1999; 71(13): 2475-81). Kinetic assays were conducted at 25° C. at a collection rate of 10 Hertz (Hz) on a BIAcore™ T200 instrument (GE Healthcare). Rate constants and affinities were determined by fitting the data to a 1:1 binding model in BIAcore™ T200 Evaluation software version 3.0 (GE Healthcare).
A general note: Surface plasmon resonance follows binding to a sensor surface in real time, without labels.

Experiment [2] has as its target T2, human E-selectin, cell-surface expressed (human, UniProt P16581 22-610).
T2 construct: also called CHO-human E-selectin cells; human CHO-E
T2 sequence: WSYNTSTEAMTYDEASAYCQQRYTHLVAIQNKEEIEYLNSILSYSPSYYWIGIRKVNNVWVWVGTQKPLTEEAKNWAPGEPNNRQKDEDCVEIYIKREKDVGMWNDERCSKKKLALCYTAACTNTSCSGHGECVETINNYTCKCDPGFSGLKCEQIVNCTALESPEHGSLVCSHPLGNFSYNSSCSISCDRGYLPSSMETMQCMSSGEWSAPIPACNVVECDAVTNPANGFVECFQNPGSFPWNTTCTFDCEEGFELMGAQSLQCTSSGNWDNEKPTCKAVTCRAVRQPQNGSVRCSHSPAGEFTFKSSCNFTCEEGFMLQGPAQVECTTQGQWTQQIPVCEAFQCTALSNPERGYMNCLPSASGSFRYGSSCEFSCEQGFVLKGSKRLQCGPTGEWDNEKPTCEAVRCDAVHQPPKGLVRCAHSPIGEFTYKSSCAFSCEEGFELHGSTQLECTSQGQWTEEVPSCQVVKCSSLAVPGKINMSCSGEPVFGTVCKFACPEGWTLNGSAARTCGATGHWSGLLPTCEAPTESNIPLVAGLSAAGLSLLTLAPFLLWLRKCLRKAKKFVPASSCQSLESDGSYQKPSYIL
Put plainly: competition ELISA on CHO cells vs sialyl Lewis A-PAA-biotin/SA-HRP. The method, then:
The ability of anti-E-selectin antibodies to neutralize ligand binding was assessed in a static neutralization assay using a competition enzyme-linked immunosorbent assay (ELISA) to evaluate the neutralization of the sialyl Lewis antigen to Chinese hamster ovary cells (CHO) engineered to express E-selectin.
Briefly, CHO cells expressing human E-selectin were grown in culture medium (MEM (Minimum Essential Medium) Alpha Medium, supplemented with 10% dialyzed fetal bovine serum, 100 nM methotrexate and 100 Units/mL penicillin and 100 μg/mL streptomycin) and were seeded at 12,500 cells per well into a 96 well tissue culture plate and incubated at 37° C., 5% CO₂ for 48 hours to form a confluent monolayer. Plates were subsequently washed twice with 200 μL of calcium magnesium free phosphate buffered saline (PBS). […] Plates were then washed twice with 200 μL of calcium magnesium free PBS. Following the incubation, the cells were washed twice with 200 μL of wash buffer containing 2 mM of calcium chloride (50 mM TRIS [trisaminomethane], 150 mM sodium chloride; 0.05% polysorbate 20, pH 7.4; 2 mM of calcium chloride). Signal was developed by adding 100 μL of 1-Step Ultra TMB substrate (Thermo Scientific, 34028) and incubating for 30 minutes at room temperature. Reactions were stopped using 2 M of sulfuric acid and absorbance read at 450 nm (Spectramax M5e). Data were analyzed and graphed using GraphPad Prism software (Version 8.0.2).

Experiment [3] has as its target T3, soluble recombinant human E-selectin (R & D Systems, ADP1) (human, UniProt P16581 22-556).
T3 sequence (looked up): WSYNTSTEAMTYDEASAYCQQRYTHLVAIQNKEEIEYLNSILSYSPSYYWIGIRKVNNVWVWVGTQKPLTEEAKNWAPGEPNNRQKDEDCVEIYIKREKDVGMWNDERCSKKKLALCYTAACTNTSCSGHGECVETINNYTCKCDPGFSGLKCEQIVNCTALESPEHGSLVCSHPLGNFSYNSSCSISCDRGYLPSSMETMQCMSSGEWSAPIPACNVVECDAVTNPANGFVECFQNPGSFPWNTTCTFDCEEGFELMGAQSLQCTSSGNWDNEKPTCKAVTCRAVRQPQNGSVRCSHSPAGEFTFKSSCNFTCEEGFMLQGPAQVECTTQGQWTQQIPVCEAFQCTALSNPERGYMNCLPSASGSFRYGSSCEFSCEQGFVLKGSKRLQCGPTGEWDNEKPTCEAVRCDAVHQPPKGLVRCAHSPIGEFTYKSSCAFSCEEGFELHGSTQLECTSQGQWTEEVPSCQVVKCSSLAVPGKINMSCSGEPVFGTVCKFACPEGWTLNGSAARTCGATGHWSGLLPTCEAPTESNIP
Description: cell-based or functional assay.

B1: anti-E-selectin antibody 0159 chimera (antibody, human IgG1, kappa, V domains shown)
VH: EVQLQQSGAELGKPGTSVKLSCKVSGYNIRSTYMHWVSQRPGKGLEWIGRIDPANGNTIYAEKFKRKATLTADTSSNTAYMQLSQLKSDDRAIYFCAMEVRVSFEYWGQGVMVTVSS
VL: DIQMTQSPSFLSASVGDRVTINCKASQNINKYLDWYQQKLGEGPKLLIYYTNNLHTGIPSRFSGSGSGTDFTLTISSLQPEDVATYFCLQHDSGYTFGAGTKLELKR
notes: rat VH/VL on effector-null human IgG1 and human kappa
As for B1, in experiment [1], the Kd (usually the concentration at which binding is half-saturated) was determined as 324 nM; the koff – broadly, the rate constant with which the complex falls apart – was 0.0371 s⁻¹; the kon (in general, a measure of how fast the partners come together) turned out to be 115000 M⁻¹ s⁻¹; the t½ (in general, the time in which the quantity being followed falls by half) amounted to 18.7 s. Also, in experiment [2], the IC50 (commonly the midpoint of a concentration-inhibition curve) was 3.24 nM. Also, the “neutralization of HL-60 cell binding under physiological flow to soluble human E-selectin protein IC50 (nM)” value in experiment [3] worked out at 21 nM.

B2: anti-E-selectin antibody 0170 chimera (antibody, human IgG1, kappa, V domains shown)
VH: EVQLQQSGAELGKPGTSVKLSCKVSGYSIRSTYMHWVNQRPGKGLEWVGRIDPANGNTIYAERFKNKATLTADTSSNTAYMQLSQLKSDDTAIYFCAVEILGIFDYWGQGVMVTVSS
VL: DIQMTQSPSFLSASVGDRVTINCKASQNIDKYLDWYQQKLGEAPKLLMYNTNSLHTGIPSRFSGSGSGTDFTLTISSLQPEDVATYFCLQHNSGYTFGAGTKLELKR
notes: as for B1
On to B2, for which, in experiment [1], the affinity, expressed as Kd, was 628 nM; the koff was found to be 0.0549 s⁻¹; the kon was determined as 87400 M⁻¹ s⁻¹; the t½ was 12.6 s. Besides, in experiment [2], the IC50 was determined as 2.3 nM. Moreover, the “neutralization of HL-60 cell binding under physiological flow to soluble human E-selectin protein IC50 (nM)” value in experiment [3] came out at 74.2 nM.

B3: anti-E-selectin antibody 0039 chimera (antibody, human IgG1, kappa, V domains shown)
VH: QVQLKETGPGLVQPTQTLSITCTVSGFSLTGYYMQWVRQTPGKGLEWMGFIRSSGSTEYNSEFKSRLSISRDTSKNQVFLKMNSLKTEDTGVYYCARCPYKYSSFVYVGVMDAWGQGAPVTVSS
VL: EIVMTQSPTSMSTSIGERVTLNCKASQTVGINVDWYQQTPGQPPKLLIYGASNRHTGVPDRFTGSGFGRDFTLTISNVEAEDLAVYCCLQYGSIPHTFGPGTKLELKR
notes: as for B1
As to B3, in experiment [1], binding was put at a Kd of 68 nM, the koff amounted to 0.00421 s⁻¹, the kon is 64200 M⁻¹ s⁻¹ and the t½ is 174 s. The molecule further gave an IC50 in experiment [2] of 3.76 nM. The “neutralization of HL-60 cell binding under physiological flow to soluble human E-selectin protein IC50 (nM)” value in experiment [3] stood at 265 nM.

B4: anti-E-selectin antibody 0180 chimera (antibody, human IgG1, kappa, V domains shown)
VH: EVQLQQSGAELGKPGTSVKLSCKVSGYKIRSSYMHWVNQRPGKGLEWIGRIDPANGNTIYGDKFKSKATLTSDTSSNTAYIQLSQLKSDDTAIYFCAIDIGTTFDYWGQGVMVTVSS
VL: DIQMTQSPSFLSASVGDRVTINCKASQHINRYLNWYQQKLGEAPKLLIYDANNLQTGIPSRFSGSGSGTDFTLTISSLQPEDVATYFCLQHNSWPNTFGAGTKLELKR
notes: as for B1
In experiment [1], B4 showed a Kd of 2940 nM, a koff of 0.666 s⁻¹, a kon of 262000 M⁻¹ s⁻¹ and a t½ of 1.05 s. Moreover, in experiment [2], the IC50 was 3.83 nM. Besides, the “neutralization of HL-60 cell binding under physiological flow to soluble human E-selectin protein IC50 (nM)” value in experiment [3] came to 225 nM.

B5: anti-E-selectin antibody 0164 chimera (antibody, human IgG1, kappa, V domains shown)
VH: EVQLQQSGAEFGKPGTSVKLSCKVSGYNIRSSYMHWVNQRPGKGLEWIGRIDPANGNTIYAEKFKIKAILTADSSSNTAYMQLSQLKSDDTAIYFCAMDLYSTSEYWGQGVMVTVSS
VL: DIQMTQSPSFLSASVGDRVTINCKTSQNINRYLNWYQQKLGEAPKLLIYNANSLQTGIPSRFSASGSGTDFTLTINSLQPEDVATYFCLQDNSWPLTFGSGTKLEIKR
notes: as for B1
In experiment [1], B5 returned a Kd of 54.4 nM, a koff of 0.0113 s⁻¹, a kon of 207000 M⁻¹ s⁻¹ and a t½ of 61.6 s. The 50% inhibitory concentration (IC50) in experiment [2] was 2.77 nM. For the same molecule, the “neutralization of HL-60 cell binding under physiological flow to soluble human E-selectin protein IC50 (nM)” value in experiment [3] was 1.7 nM.

B6: anti-E-selectin antibody 0158 chimera (antibody, human IgG1, kappa, V domains shown)
VH: QVQLKESGPGLVQPSETLSLTCTVSGFSISTYNVHWLRQPPGKGLEWMGMMWSGGSPDYNSALKSRLSISRDTSKNQVFLKMNSLQSEDTTTYYCARWGGGFDYWGQGVMVTVSS
VL: DIVLTQSPTTLSVTPGETVSLSCRASHSIGTNLHWYQQKTNESPRLLIKFTSQSISGIPSRFSASGSGTDFTLNINNVEFDDVSSYFCQQTQSWPLTFGSGTKLEIKR
notes: as for B1
In experiment [1], B6 showed a Kd of 21.6 nM, a koff of 0.00175 s⁻¹, a kon of 81000 M⁻¹ s⁻¹ and a t½ of 397 s. Further, in experiment [2], the IC50 was 2.87 nM. Besides, in experiment [3], the “neutralization of HL-60 cell binding under physiological flow to soluble human E-selectin protein IC50 (nM)” value was 17.9 nM.
